From patent US20200165340A1 (XIANGTAN TENGHUA BIOSCIENCE, published 2020) come the findings set out here.

A word on the EC50: it is the concentration that produces a half-maximal response. The low end stands for a more potent agent, the high end for a less potent agent.

The target of this assay is T1, human PD-L1 expressed at the cell membrane (human, UniProt Q9NZQ7 19-290).
T1 construct: whole, on cells; also called programmed death-ligand 1; cellular PD-L1 protein
Kind of assay: flow cytometry (FACS) titration on 293T cells stably transfected with human PD-L1, anti-mouse IgG PE detection. For orientation: A flow cytometer gives signals particle by particle.

T1 sequence (Q9NZQ7 19-290): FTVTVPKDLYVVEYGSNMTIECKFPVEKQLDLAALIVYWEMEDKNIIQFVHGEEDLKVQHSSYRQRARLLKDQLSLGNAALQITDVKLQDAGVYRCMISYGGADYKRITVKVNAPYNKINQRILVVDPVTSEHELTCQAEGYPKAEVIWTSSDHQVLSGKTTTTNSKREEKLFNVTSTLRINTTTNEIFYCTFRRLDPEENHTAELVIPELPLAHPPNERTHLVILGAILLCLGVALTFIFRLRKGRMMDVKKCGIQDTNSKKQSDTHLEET

B1: anti-PD-L1 mouse monoclonal antibody Q106 (antibody, V domains shown)
VH: DVQLQESGPGLVKPSQSLSLTCSVTGYSITSDYAWNWIRQFPGDTLEWMGYINYSGSSTYNPSLISRLSITRDTSKNQFFLQLNSVTSEDTATYYCARGPDWDWYFDYWGQGTTLTVSS
VL: DIVLTQSPATLSVTPGDSVSLSCRASQSISNNLHWYQQKSHESPRLLIKYASQSISGIPSRFSGSGSGTDFTLSINGVETEDFGMYFCQQTNSWPTFGGGTKLEIK
notes: also called PD-L1 antibody Q106
For B1, the EC50 was 0.3 nM.
